Test results from article PMC10148881, “Recognition of an Ala-rich C-degron by the E3 ligase Pirh2” (Nature Communications, 2023).

Molecular target: Ala6/C-degron peptide (sequence: …)
Experiment: ITC

- Kd: 40 µM
Substance: WT Pirh2 I110D
